{"source": "paper PMC3552686", "about": "“Biosynthesis of allene oxides in Physcomitrella patens” (BMC Plant Biology, 2012)", "experiment_in_all_cases": "purified protein", "format_in_all_cases": "biochemical, Physcomitrium patens", "key": {"purified protein [1]": {"substrate": "CCCCC/C=C\\C=C\\[C@H](CCCCCCCC(=O)O)OO", "details": "pH 6.5, room temperature, 0.1 nM enzyme, kcat corrected to 100% heme"}, "purified protein [2]": {"substrate": "CCCCC[C@@H](/C=C/C=C\\CCCCCCCC(=O)O)OO", "details": "pH 6.5, room temperature, 0.1 nM enzyme, kcat corrected to 100% heme"}, "purified protein [3]": {"substrate": "CCCCC/C=C\\C[C@@H](/C=C/C=C\\C/C=C\\CCCC(=O)O)OO", "details": "pH 6.5, room temperature, 0.1 nM enzyme, kcat corrected to 100% heme"}, "purified protein [4]": {"substrate": "CCCCC/C=C\\C=C\\[C@H](C/C=C\\CCCCC(=O)O)OO", "details": "pH 6.5, room temperature, 0.05 nM enzyme, kcat corrected to 100% heme"}, "purified protein [5]": {"substrate": "CCCCC[C@@H](/C=C/C=C\\C/C=C\\CCCCC(=O)O)OO", "details": "pH 6.5, room temperature, 0.05 nM enzyme, kcat corrected to 100% heme"}, "purified protein [6]": {"substrate": "CC/C=C\\C/C=C\\C=C\\[C@H](CCCCCCCC(=O)O)OO", "details": "pH 6.5, room temperature, 0.1 nM enzyme, kcat corrected to 100% heme"}, "purified protein [7]": {"substrate": "CC/C=C\\C[C@@H](/C=C/C=C\\CCCCCCCC(=O)O)OO", "details": "pH 6.5, room temperature, 0.1 nM enzyme, kcat corrected to 100% heme"}}, "data": [{"protein": "PpAOS1 (Physcomitrium patens) (protein, cDNA from protonema library; N-terminal His6 tag kept (pQE30), E. coli SG13009[pRep4]) MAVPSSKLPLKAIPGDYGVPYFGAIKDRLDYFWLQGEEQFYRSRMAKYNSTVFRVNMPPGPPISEHPQVICLLDQKSFPILFDVSKVEKKDVFTGTYMPSVSFTSGYRVCSYLDPSEERHTKLKQWCFEVIAMNGRNFLPEFHKSIEESMVLWETSLAKGEKTSVSDEVKQFAFNFLMRAVCHHDPAAPGEYSLGRNGGPYATAWANPQLAPIAGQTGLPHVVEELVLHTVPLPSALVKKNYDALYNFIKNYATEALDRAEAMGIERNDATANLLFFLCFNAYGGFSIFFPLITILISSCGPELMHDLHDEVTKAVAATDGKVTLQSIENMPLVKSVVYEAFRFKPPVPYQYGKAKFDFTIENHENSFEVKKGEMLYGYQPIVMHDPKVFSDPDQFLPRRFMGPDGEKLIKYIFWSNGYETDEPTTANKQCAGKDLVVTMARAFVAEMFLRYKEYTLTMEGAGNATKVFFSDLKK", "values": [{"measurement": "Km", "setting": "purified protein [1]", "value": "121 ± 61", "unit": "µM"}, {"measurement": "Vmax", "setting": "purified protein [1]", "value": 0.98, "unit": "µM/min"}, {"measurement": "kcat", "setting": "purified protein [1]", "value": 545, "unit": "s⁻¹"}, {"measurement": "kcat/Km", "setting": "purified protein [1]", "value": "4.5e+06", "unit": "M⁻¹ s⁻¹"}, {"measurement": "Km", "setting": "purified protein [2]", "value": "83 ± 42", "unit": "µM"}, {"measurement": "Vmax", "setting": "purified protein [2]", "value": 0.96, "unit": "µM/min"}, {"measurement": "kcat", "setting": "purified protein [2]", "value": 531, "unit": "s⁻¹"}, {"measurement": "kcat/Km", "setting": "purified protein [2]", "value": "6.4e+06", "unit": "M⁻¹ s⁻¹"}, {"measurement": "Km", "setting": "purified protein [3]", "value": "7 ± 2", "unit": "µM"}, {"measurement": "Vmax", "setting": "purified protein [3]", "value": 0.23, "unit": "µM/min"}, {"measurement": "kcat", "setting": "purified protein [3]", "value": 128, "unit": "s⁻¹"}, {"measurement": "kcat/Km", "setting": "purified protein [3]", "value": "1.96e+07", "unit": "M⁻¹ s⁻¹"}, {"measurement": "Km", "setting": "purified protein [4]", "value": "46 ± 17", "unit": "µM"}, {"measurement": "Vmax", "setting": "purified protein [4]", "value": 2.35, "unit": "µM/min"}, {"measurement": "kcat", "setting": "purified protein [4]", "value": 2610, "unit": "s⁻¹"}, {"measurement": "kcat/Km", "setting": "purified protein [4]", "value": "5.71e+07", "unit": "M⁻¹ s⁻¹"}, {"measurement": "Km", "setting": "purified protein [5]", "value": "107 ± 57", "unit": "µM"}, {"measurement": "Vmax", "setting": "purified protein [5]", "value": 2.77, "unit": "µM/min"}, {"measurement": "kcat", "setting": "purified protein [5]", "value": 3080, "unit": "s⁻¹"}, {"measurement": "kcat/Km", "setting": "purified protein [5]", "value": "2.88e+07", "unit": "M⁻¹ s⁻¹"}, {"measurement": "Km", "setting": "purified protein [6]", "value": "39 ± 14", "unit": "µM"}, {"measurement": "Vmax", "setting": "purified protein [6]", "value": 0.2, "unit": "µM/min"}, {"measurement": "kcat", "setting": "purified protein [6]", "value": 112, "unit": "s⁻¹"}, {"measurement": "kcat/Km", "setting": "purified protein [6]", "value": "2.87e+06", "unit": "M⁻¹ s⁻¹"}, {"measurement": "Km", "setting": "purified protein [7]", "value": "95 ± 27", "unit": "µM"}, {"measurement": "Vmax", "setting": "purified protein [7]", "value": 0.9, "unit": "µM/min"}, {"measurement": "kcat", "setting": "purified protein [7]", "value": 501, "unit": "s⁻¹"}, {"measurement": "kcat/Km", "setting": "purified protein [7]", "value": "5.27e+06", "unit": "M⁻¹ s⁻¹"}]}]}
